Test [1] has as its target filamentous actin (F-actin) (UniProt P68135). Kind of test: co-sedimentation; His-tagged vinculin or mutants (1 uM) with 4 uM pre-polymerized F-actin and 10 uM GST-VBS(IpaA 610-633) as activator; 50 mM Tris-HCl pH 8.0, 0.2 mM MgCl2, 0.2 mM ATP, 1 mM DTT; 1 h at 24 C; 150,000 x g 1 h at 4 C; SDS-PAGE, CBB staining, ratio of precipitated to total vinculin by ImageJ.
Test [2] shares this target. Description: co-sedimentation; His-tagged vinculin or mutants (2 uM; WT also at 0.25 uM with 10 or 25 uM peptide) with 4 uM pre-polymerized F-actin and 25 uM VBS3(talin) peptide as activator; 50 mM Tris-HCl pH 8.0, 0.2 mM MgCl2, 0.2 mM ATP, 1 mM DTT; 1 h at 24 C; 150,000 x g 1 h at 4 C; SDS-PAGE, CBB staining, ratio of precipitated to total vinculin by ImageJ.
In test [3] the target is filamentous actin (F-actin), P68135. Description: actin co-sedimentation assay. The settings on record: chain shown with the change.

Where a chain is given by its changes, count along the chain named. Names and notes keep the numbering of the source.

5 molecules from paper PMC5384775 can be followed below.

As to “His-tagged WT vinculin (from UniProt Q64727 1-1066) (natural protein)”, the percent of vinculin coprecipitated with F-actin in test [1] turned out to be 84%; in test [2], 40%. Turning to “His-tagged vinculin IA mutant (I997A) (from UniProt Q64727 1-1066) (natural protein)”, in test [1], the percent of vinculin coprecipitated with F-actin was 42%. Consider “His-tagged vinculin VA mutant (V1001A) (from UniProt Q64727 1-1066) (natural protein)”, for which the percent of vinculin coprecipitated with F-actin in test [1] stood at 53%.

B1: His-tagged WT vinculin, Q64727 D974A; K975A; R976A; R978A (protein)
chain: MPVFHTRTIESILEPVAQQISHLVIMHEEGEVDGKAIPDLTAPVAAVQAAVSNLVRVGKETVQTTEDQILKRDMPPAFIKVENACTKLVQAAQMLQSDPYSVPARDYLIDGSRGILSGTSDLLLTFDEAEVRKIIRVCKGILEYLTVAEVVETMEDLVTYTKNLGPGMTKMAKMIDERQQELTHQEHRVMLVNSMNTVKELLPVLISAMKIFVTTKNSKNQGIEEALKNRNFTVEKMSAEINEIIRVLQLTSWDEDAWASKDTEAMKRALASIDSKLNQAKGWLRDPNASPGDAGEQAIRQILDEAGKVGELCAGKERREILGTCKMLGQMTDQVADLRARGQGASPVAMQKAQQVSQGLDVLTAKVENAARKLEAMTNSKQSIAKKIDAAQNWLADPNGGPEGEEQIRGALAEARKIAELCDDPKERDDILRSLGEIAALTSKLGDLRRQGKGDSPEARALAKQVATALQNLQTKTNRAVANSRPAKAAVHLEGKIEQAQRWIDNPTVDDRGVGQAAIRGLVAEGHRLANVMMGPYRQDLLAKCDRVDQLTAQLADLAARGEGESPQARALASQLQDSLKDLKAQMQEAMTQEVSDVFSDTTTPIKLLAVAATAPPDAPNREEVFDERAANFENHSGRLGATAEKAAAVGTANKSTVEGIQASVKTARELTPQVISAARILLRNPGNQAAYEHFETMKNQWIDNVEKMTGLVDEAIDTKSLLDASEEAIKKDLDKCKVAMANIQPQMLVAGATSIARRANRILLVAKREVENSEDPKFREAVKAASDELSKTISPMVMDAKAVAGNISDPGLQKSFLDSGYRILGAVAKVREAFQPQEPDFPPPPPDLEQLRLTDELAPPKPPLPEGEVPPPRPPPPEEKDEEFPEQKAGEVINQPMMMAARQLHDEARKWSSKGNDIIAAAKRMALLMAEMSRLVRGGSGTKRALIQCAKDIAKASDEVTRLAKEVAKQCTAAAIATNLLQVCERIPTISTQLKILSTVKATMLGRTNISDEESEQATEMLVHNAQNLMQSVKETVREAEAASIKIRTDAGFTLRWVRKTPWYQ
For B1, the response in test [3] (2 μM His-tagged vinculin, 25 μM VBS3(talin), parent: est. 41, read off a plot) is 59%.

B2: His-tagged WT vinculin, Q64727 I997A; V1001A (protein)
chain: B1 chain with A974D, A975K, A976R, A978R, I997A, V1001A
As for B2, the response in test [3] (1 μM His-tagged vinculin, 10 μM GST-VBS(IpaA), parent: est. 84, read off a plot) was 43%.
